From patent publication US20150175687A1 come the findings set out here.

Assay [1] addresses recombinant mature myostatin (human) (UniProt O14793).
The target is the same in assay [2]. The assay can be described thus: BIAcore, myostatin immobilized. A general note: In SPR one partner is held on a chip, and binding of the other changes the refractive index at the surface.

recombinant mature myostatin (human), sequence (O14793 267-375): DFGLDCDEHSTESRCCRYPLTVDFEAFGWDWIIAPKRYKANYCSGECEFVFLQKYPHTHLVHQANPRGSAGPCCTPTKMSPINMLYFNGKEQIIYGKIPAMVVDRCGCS

B1: recombinant human activin receptor IIB/Fc chimera (Fc fusion)
chain: SGRGEAETRECIYYNANWELERTNQSGLERCEGEQDKRLHCYASWRNSSGTIELVKKGCWLDDFNCYDRQECVATEENPQVYFCCCEGNFCNERFTHLPEAGGPEVTYEPPPTAPT
By Kd is commonly meant the concentration at which binding is half-saturated. Turning to B1, the IC50 (nM), myostatin-induced luciferase, C2C12 pMARE-luc in assay [1] is 83 nM. Besides, the Kd in assay [2] was 7 nM.
